Stoichiometry N and Ki data for 1 molecule are collected here from paper PMC1298937, “A Novel Endogenous Inhibitor of the Secreted Streptococcal NAD-Glycohydrolase” (PLoS Pathogens, 2005).

Assay [1] addresses 6X-His-tagged SPN (SPN-H) expressed from pMAM3.18 (Streptococcus pyogenes strain JRS4). Description: SEC + other: densitometry of SDS-PAGE; SPN-IFS complex assembled in vivo and purified from the cytoplasm of E. coli TOP10(pMAM3.18); Superdex 75 HR 10/30, 20 mM Tris pH 8.5, 100 mM NaCl; peak fractions on Coomassie-stained SDS-PAGE compared with known concentrations of purified SPN and IFS.

Assay [2] deals with T1, SPN secreted by S. pyogenes JRS4 (culture supernatant) (Streptococcus pyogenes strain JRS4 …).
T1 chain: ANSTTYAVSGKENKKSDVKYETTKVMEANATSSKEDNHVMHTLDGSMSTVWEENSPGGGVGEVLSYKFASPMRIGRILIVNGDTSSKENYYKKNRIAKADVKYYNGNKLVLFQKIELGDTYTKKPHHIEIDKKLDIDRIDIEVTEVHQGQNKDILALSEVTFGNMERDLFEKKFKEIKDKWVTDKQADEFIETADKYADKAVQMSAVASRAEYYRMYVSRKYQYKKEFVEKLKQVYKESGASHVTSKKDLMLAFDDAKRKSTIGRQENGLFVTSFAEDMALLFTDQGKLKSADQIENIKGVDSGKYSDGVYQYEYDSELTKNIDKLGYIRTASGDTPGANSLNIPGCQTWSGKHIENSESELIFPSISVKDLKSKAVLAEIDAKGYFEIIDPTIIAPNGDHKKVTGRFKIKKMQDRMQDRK
Briefly: enzyme inhibition kinetics (competitive model); apparent constant; purified IFS (up to 2.3 nM) with SPN from JRS4 culture supernatant (0.125 U/ml) and varying beta-NAD+ (up to 1.2 mM) in PBS at 37 C; fluorescence of residual beta-NAD+; simultaneous fit. Conditions: one partner purified.

B1: Immunity factor for SPN (IFS) with C-terminal c-myc and 6X-His tags (IFS-H), expressed from pMAM3.19 (natural protein)
chain: MYKVPKGLEHYQKMFQKEVTVNDLKKYLIGSDKEYRITRRDSYMGDISDPEVILEYGVYPAFIKGYTQLKANIEEALLEMSNSGQALDIYQAVQTLNAENMLLNYYESLPFYLNRQSILANITKALKDAHIREAMAHYKLGEFAHYQDTMLDMVERTIETF
notes: source: E. coli TOP10(pMAM3.19), arabinose-induced: cytoplasmic extract; purified (TALON, Resource Q); not shown: c-myc, C-terminal, kept; 6X-His, C-terminal, kept
The stoichiometry N is a count of units in the complex or per binding partner. With B1, the stoichiometry N in assay [1] worked out at 1. In assay [2], the Ki stood at 2 nM.
